± gives the uncertainty stated by the source.
B1: Homeobox protein SIX3, residues 212 to 262; numbered along this chain, O95343 (parent)
chain: CFKERTRSLLREWYLQDPYPNPSKKRELAQATGLTPTQVGNWFKNRRQRDR
B2: Tumor protein p73, residues 487 to 549; numbered along this chain, O15350 (parent)
chain: YHADPSLVSFLTGLGCPNCIEYFTSQGLQSIYHLQNLTIEDLGALKIPEQYRMTIWRGLQDLK

Variants of: B1
Assay: abundance fitness (aPCA) (normalised: wild type 0, dead -1); higher = more abundant; growth selection in yeast, the domain comes from the species named
Conditions: Homo sapiens

| Variant | abundance fitness |
| --- | --- |
| CRKERTRSLLREWYLQDPYPNPSKKRELAQATGLTPTQVGNWFKNRRQRDR [F2R] | -0.324 ± 0.048 |
| CTKERTRSLLREWYLQDPYPNPSKKRELAQATGLTPTQVGNWFKNRRQRDR [F2T] | -0.106 ± 0.074 |
| CHKERTRSLLREWYLQDPYPNPSKKRELAQATGLTPTQVGNWFKNRRQRDR [F2H] | -0.083 ± 0.052 |
| CMKERTRSLLREWYLQDPYPNPSKKRELAQATGLTPTQVGNWFKNRRQRDR [F2M] | 0.253 ± 0.089 |
| CKKERTRSLLREWYLQDPYPNPSKKRELAQATGLTPTQVGNWFKNRRQRDR [F2K] | 0.009 ± 0.1 |
| CGKERTRSLLREWYLQDPYPNPSKKRELAQATGLTPTQVGNWFKNRRQRDR [F2G] | -0.04 ± 0.045 |
| CDKERTRSLLREWYLQDPYPNPSKKRELAQATGLTPTQVGNWFKNRRQRDR [F2D] | 0.361 ± 0.076 |
| CIKERTRSLLREWYLQDPYPNPSKKRELAQATGLTPTQVGNWFKNRRQRDR [F2I] | -0.047 ± 0.1 |
| CEKERTRSLLREWYLQDPYPNPSKKRELAQATGLTPTQVGNWFKNRRQRDR [F2E] | 0.037 ± 0.062 |
| CWKERTRSLLREWYLQDPYPNPSKKRELAQATGLTPTQVGNWFKNRRQRDR [F2W] | -0.538 ± 0.1 |
| CQKERTRSLLREWYLQDPYPNPSKKRELAQATGLTPTQVGNWFKNRRQRDR [F2Q] | -0.178 ± 0.095 |
| CYKERTRSLLREWYLQDPYPNPSKKRELAQATGLTPTQVGNWFKNRRQRDR [F2Y] | 0.079 ± 0.093 |
| CAKERTRSLLREWYLQDPYPNPSKKRELAQATGLTPTQVGNWFKNRRQRDR [F2A] | -0.183 ± 0.06 |
| CCKERTRSLLREWYLQDPYPNPSKKRELAQATGLTPTQVGNWFKNRRQRDR [F2C] | -0.315 ± 0.092 |
| CPKERTRSLLREWYLQDPYPNPSKKRELAQATGLTPTQVGNWFKNRRQRDR [F2P] | -0.258 ± 0.044 |
| CNKERTRSLLREWYLQDPYPNPSKKRELAQATGLTPTQVGNWFKNRRQRDR [F2N] | 0.149 ± 0.11 |
| CLKERTRSLLREWYLQDPYPNPSKKRELAQATGLTPTQVGNWFKNRRQRDR [F2L] | -0.022 ± 0.067 |
| SFKERTRSLLREWYLQDPYPNPSKKRELAQATGLTPTQVGNWFKNRRQRDR [C1S] | -0.121 ± 0.18 |
| VFKERTRSLLREWYLQDPYPNPSKKRELAQATGLTPTQVGNWFKNRRQRDR [C1V] | -0.402 ± 0.3 |
| EFKERTRSLLREWYLQDPYPNPSKKRELAQATGLTPTQVGNWFKNRRQRDR [C1E] | -0.342 ± 0.49 |
| GFKERTRSLLREWYLQDPYPNPSKKRELAQATGLTPTQVGNWFKNRRQRDR [C1G] | -0.359 ± 0.14 |
| IFKERTRSLLREWYLQDPYPNPSKKRELAQATGLTPTQVGNWFKNRRQRDR [C1I] | 0.874 ± 0.28 |
| WFKERTRSLLREWYLQDPYPNPSKKRELAQATGLTPTQVGNWFKNRRQRDR [C1W] | -0.251 ± 0.16 |
| FFKERTRSLLREWYLQDPYPNPSKKRELAQATGLTPTQVGNWFKNRRQRDR [C1F] | 0.499 ± 0.16 |
| CFAERTRSLLREWYLQDPYPNPSKKRELAQATGLTPTQVGNWFKNRRQRDR [K3A] | -0.3 ± 0.037 |

Variants of: B2
Assay: as above
Conditions: Homo sapiens

| Variant | abundance fitness |
| --- | --- |
| YHADPSLVSFLTGLGCPNCIEYFTSQGLQSIYHLQNLTIEDLGALKIPEQYRMTIWRGLQDIK [L62I] | -0.044 ± 0.07 |
| YHADPSLVSFLTGLGCPNCIEYFTSQGLQSIYHLQNLTIEDLGALKIPEQYRMTIWRGLQDYK [L62Y] | 0.008 ± 0.087 |
| YHADPSLVSFLTGLGCPNCIEYFTSQGLQSIYHLQNLTIEDLGALKIPEQYRMTIWRGLQDFK [L62F] | -0.059 ± 0.053 |
| YHADPSLVSFLTGLGCPNCIEYFTSQGLQSIYHLQNLTIEDLGALKIPEQYRMTIWRGLQDPK [L62P] | -0.032 ± 0.058 |
| YHADPSLVSFLTGLGCPNCIEYFTSQGLQSIYHLQNLTIEDLGALKIPEQYRMTIWRGLQDSK [L62S] | -0.083 ± 0.036 |
| YHADPSLVSFLTGLGCPNCIEYFTSQGLQSIYHLQNLTIEDLGALKIPEQYRMTIWRGLQDKK [L62K] | -0.257 ± 0.08 |
| YHADPSLVSFLTGLGCPNCIEYFTSQGLQSIYHLQNLTIEDLGALKIPEQYRMTIWRGLQDWK [L62W] | 0.071 ± 0.039 |
| YHADPSLVSFLTGLGCPNCIEYFTSQGLQSIYHLQNLTIEDLGALKIPEQYRMTIWRGLQDNK [L62N] | 0.058 ± 0.088 |
| YHADPSLVSFLTGLGCPNCIEYFTSQGLQSIYHLQNLTIEDLGALKIPEQYRMTIWRGLQDVK [L62V] | -0.007 ± 0.033 |
| YHADPSLVSFLTGLGCPNCIEYFTSQGLQSIYHLQNLTIEDLGALKIPEQYRMTIWRGLQDLA [K63A] | -0.082 ± 0.16 |
| YHADPSLVSFLTGLGCPNCIEYFTSQGLQSIYHLQNLTIEDLGALKIPEQYRMTIWRGLQDLG [K63G] | -0.002 ± 0.075 |
| YHADPSLVSFLTGLGCPNCIEYFTSQGLQSIYHLQNLTIEDLGALKIPEQYRMTIWRGLQDLH [K63H] | -0.34 ± 0.37 |
| YHADPSLVSFLTGLGCPNCIEYFTSQGLQSIYHLQNLTIEDLGALKIPEQYRMTIWRGLQDLN [K63N] | -0.245 ± 0.3 |
| YHADPSLVSFLTGLGCPNCIEYFTSQGLQSIYHLQNLTIEDLGALKIPEQYRMTIWRGLQDLS [K63S] | 0 ± 0.058 |
| YHADPSLVSFLTGLGCPNCIEYFTSQGLQSIYHLQNLTIEDLGALKIPEQYRMTIWRGLQDLR [K63R] | -0.159 ± 0.14 |
| YHADPSLVSFLTGLGCPNCIEYFTSQGLQSIYHLQNLTIEDLGALKIPEQYRMTIWRGLQDLL [K63L] | -0.261 ± 0.087 |
| YHADPSLVSFLTGLGCPNCIEYFTSQGLQSIYHLQNLTIEDLGALKIPEQYRMTIWRGLQDLW [K63W] | -0.044 ± 0.25 |
| YHADPSLVSFLTGLGCPNCIEYFTSQGLQSIYHLQNLTIEDLGALKIPEQYRMTIWRGLQDLC [K63C] | -0.239 ± 0.088 |
| YHADPSLVSFLTGLGCPNCIEYFTSQGLQSIYHLQNLTIEDLGALKIPEQYRMTIWRGLQDLT [K63T] | 0.172 ± 0.14 |
| YHADPSLVSFLTGLGCPNCIEYFTSQGLQSIYHLQNLTIEDLGALKIPEQYRMTIWRGLQDLQ [K63Q] | 0.074 ± 0.28 |
| YHADPSLVSFLTGLGCPNCIEYFTSQGLQSIYHLQNLTIEDLGALKIPEQYRMTIWRGLQDLE [K63E] | 0.103 ± 0.063 |
| YHADPSLVSFLTGLGCPNCIEYFTSQGLQSIYHLQNLTIEDLGALKIPEQYRMTIWRGLQDLP [K63P] | -0.394 ± 0.38 |

Reference: the Human Domainome abundance scans (Beltran et al. 2025)
